From patent US20240116985A1, “STAPLED PEPTIDES AND METHODS THEREOF” (priority 2020, published 2024) come the findings set out here.

Starred links: 1 amine or outer side, 2 acyl side, 3 side chain; linkers in the order of their positions; H or OH if unused. Positions of bridges follow the written chain, without caps; N, C: chain ends. Non-standard residues stand in square brackets, D forms with d. Primed or numbered codes have the meaning given here. PyrS2″ = (S)-3-amino-1-((pent-4-en-1-yloxy)carbonyl)pyrrolidine-3-carboxylic acid (stapling residue), C=CCCCOC(=O)N1CC[C@@](N[*:1])(C(=O)[*:2])C1; B5(4) = 2,2-bis(4-pentenyl)glycine = 2-amino-2-(pent-4-en-1-yl)hept-6-enoic acid (stitching residue), C=CCCCC(CCCC=C)(N[*:1])C(=O)[*:2]; B5(5) = 2,2-bis(4-pentenyl)glycine, 2-amino-2-(pent-4-en-1-yl)hept-6-enoic acid (stitching residue), C=CCCCC(CCCC=C)(N[*:1])C(=O)[*:2]; TfeGA = (S)-2-amino-3-((carboxymethyl)(2,2,2-trifluoroethyl)amino)propanoic acid, O=C([C@H](CN(CC(=O)[*:3])CC(F)(F)F)N[*:1])[*:2]; (Pip)GlnR = (S)-2-amino-5-oxo-5-(piperidin-1-yl)pentanoic acid, O=C(CC[C@H](N[*:1])C(=O)[*:2])N1CCCCC1; B5(3) = 2,2-bis(4-pentenyl)glycine (stitching residue), C=CCCCC(CCCC=C)(N[*:1])C(=O)[*:2]; Phe(3-COOH) = N[C@@H](Cc1cccc(C(=O)O)c1)C(=O)O; Phe(2-CF3) = N[C@@H](Cc1ccccc1C(F)(F)F)C(=O)O; Bta = N[C@@H](Cc1csc2ccccc12)C(=O)O; αAllylPro = C=CC[C@@]1(C(=O)O)CCCN1; tBuAla = CC(C)(C)C[C@H](N)C(=O)O; 3Thi = N[C@@H](Cc1ccsc1)C(=O)O; 2F3MeF(3) = Phe analogue; Abu = CC[C@H](N)C(=O)O; Aib = CC(C)(N)C(=O)O

For orientation: IC50 means the midpoint of a concentration-inhibition curve. Low values mean greater potency in that assay, high ones weaker potency in that assay.

One test has as its target full-length beta-Catenin (Uniprot ID P35222) (Homo sapiens (Human)) (UniProt P35222). Description: fluorescence polarization competition; full-length beta-catenin, competitor 5FAM-TCF4(10-53). On the technique in general: Polarisation of emitted light reports the rotation of a fluorescent probe.
Target sequence in this assay (P35222 whole entry): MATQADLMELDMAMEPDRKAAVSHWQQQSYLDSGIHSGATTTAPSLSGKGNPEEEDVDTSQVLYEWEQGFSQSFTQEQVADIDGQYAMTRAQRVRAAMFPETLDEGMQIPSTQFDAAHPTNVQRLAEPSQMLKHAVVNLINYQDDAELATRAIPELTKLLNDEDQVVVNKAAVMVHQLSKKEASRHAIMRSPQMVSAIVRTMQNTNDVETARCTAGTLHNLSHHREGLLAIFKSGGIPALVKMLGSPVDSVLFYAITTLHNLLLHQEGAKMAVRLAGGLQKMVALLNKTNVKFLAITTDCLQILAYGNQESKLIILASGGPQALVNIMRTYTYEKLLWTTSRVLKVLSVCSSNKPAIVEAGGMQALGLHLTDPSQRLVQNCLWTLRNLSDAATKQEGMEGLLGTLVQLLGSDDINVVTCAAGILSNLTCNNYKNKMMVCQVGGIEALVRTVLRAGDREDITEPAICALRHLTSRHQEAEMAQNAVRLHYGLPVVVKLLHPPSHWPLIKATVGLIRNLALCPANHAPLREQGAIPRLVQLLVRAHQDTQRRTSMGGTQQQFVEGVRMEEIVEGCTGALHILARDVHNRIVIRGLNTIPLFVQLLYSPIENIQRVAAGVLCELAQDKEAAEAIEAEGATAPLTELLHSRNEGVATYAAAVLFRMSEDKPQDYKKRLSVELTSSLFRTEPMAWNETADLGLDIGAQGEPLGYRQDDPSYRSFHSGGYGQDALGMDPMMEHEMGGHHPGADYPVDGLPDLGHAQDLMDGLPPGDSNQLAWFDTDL
In turn, Ac-[αAllylPro]D[tBuAla][B5(4)]D[TfeGA]AAFL[PyrS2″][3Thi][Bta]V-NH2 (staple 1-4, 4-11; also: -CH=CH- in each staple reduced to -CH2-CH2-) [I-1757] had an IC50 of 0.449 µM.
The molecule Ac-[αAllylPro]D[tBuAla][B5(5)]D[TfeGA]AAFL[PyrS2″][3Thi][Bta]F-NH2 (staple 1-4, 4-11) [I-1750] yielded a 50% inhibitory concentration (IC50) of 0.104 µM.
On to Ac-[αAllylPro]D[tBuAla][B5(4)]D[TfeGA]AAFL[PyrS2″][3Thi][Bta]V-NH2 (staple 1-4, 4-11; not fully specified) [I-1752], for which the IC50 was found to be 0.087 µM.
Ac-[αAllylPro]D[tBuAla][B5(4)]D[TfeGA]AAFL[PyrS2″][3Thi][Bta]F-NH2 (staple 1-4, 4-11; not fully specified) [I-1749] had a half-maximal inhibitory concentration (IC50) of 0.145 µM.
Molecule Ac-[αAllylPro]D[tBuAla][B5(5)]D[TfeGA]AAFL[PyrS2″][3Thi][Bta]L-NH2 (staple 1-4, 4-11) [I-1748] yielded a 50% inhibitory concentration (IC50) of 0.141 µM.
Still for that read-out and setting: next, Ac-[αAllylPro]D[tBuAla][B5(4)]D[TfeGA]AAFL[PyrS2″][3Thi][Bta]F-NH2 (staple 1-4, 4-11; also: -CH=CH- in each staple reduced to -CH2-CH2-) [I-1755]: 0.57 µM; Ac-[αAllylPro]D[tBuAla][B5(4)]D[TfeGA]AAFL[PyrS2″][3Thi][Bta]L-NH2 (staple 1-4, 4-11; also: -CH=CH- in each staple reduced to -CH2-CH2-) [I-1753]: 0.802 µM; Ac-[αAllylPro]D[tBuAla][B5(4)]D[TfeGA]AAFT[PyrS2″][3Thi][Bta]F-NH2 (staple 1-4, 4-11; also: -CH=CH- in each staple reduced to -CH2-CH2-) [I-1756]: 0.329 µM.
In the case of Ac-[αAllylPro]D[tBuAla][B5(4)]D[TfeGA]AAFL[PyrS2″][3Thi][Bta]V-NH2 (staple 1-4, 4-11; not fully specified) [I-1751], the IC50 was 0.104 µM.
On to Ac-[αAllylPro]D[tBuAla][B5(4)]D[TfeGA]AAFT[PyrS2″][3Thi][Bta]L-NH2 (staple 1-4, 4-11; also: -CH=CH- in each staple reduced to -CH2-CH2-) [I-1754], for which the IC50 worked out at 0.66 µM.

The target is the same in a further test. Kind of test: fluorescence polarization competition; full-length beta-catenin, 5FAM-TCF4(10-53) probe as competitor.
Target sequence in this assay (P35222 2-781 limits assumed): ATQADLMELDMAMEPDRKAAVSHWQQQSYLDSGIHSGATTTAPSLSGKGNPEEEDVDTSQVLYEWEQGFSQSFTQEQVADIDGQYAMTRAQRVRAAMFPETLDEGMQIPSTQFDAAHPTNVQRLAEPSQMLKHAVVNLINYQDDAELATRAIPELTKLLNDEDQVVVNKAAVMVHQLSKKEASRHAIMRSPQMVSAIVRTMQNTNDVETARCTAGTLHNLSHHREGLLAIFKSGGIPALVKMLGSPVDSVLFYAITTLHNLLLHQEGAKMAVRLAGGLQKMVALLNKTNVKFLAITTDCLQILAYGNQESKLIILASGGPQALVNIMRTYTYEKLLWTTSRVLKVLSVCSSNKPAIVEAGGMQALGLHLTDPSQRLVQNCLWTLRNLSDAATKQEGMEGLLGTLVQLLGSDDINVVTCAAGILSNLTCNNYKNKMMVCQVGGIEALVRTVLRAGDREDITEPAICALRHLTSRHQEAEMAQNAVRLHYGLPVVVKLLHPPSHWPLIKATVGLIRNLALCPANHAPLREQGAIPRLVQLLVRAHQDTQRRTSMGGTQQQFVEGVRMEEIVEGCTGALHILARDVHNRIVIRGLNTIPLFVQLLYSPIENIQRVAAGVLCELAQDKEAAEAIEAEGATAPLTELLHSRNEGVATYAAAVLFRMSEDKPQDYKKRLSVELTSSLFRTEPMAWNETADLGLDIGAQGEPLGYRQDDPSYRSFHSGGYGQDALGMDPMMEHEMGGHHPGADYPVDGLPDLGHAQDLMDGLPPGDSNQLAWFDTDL
In the case of Ac-[αAllylPro]D[tBuAla][B5(5)]D[Phe(3-COOH)]AAFL[PyrS2″][Phe(2-CF3)][Bta][(NHEt)GlnR]A-NH2 (staple 1-4, 4-11) [Ac-PL3-Asp-Npg-B5-Asp-3COOHF-Ala-Ala-Phe-Leu-PyrS2-2F3MeF-BztA-[NHEt]GlnR-Ala-NH2], the IC50 was determined as 0.024 µM.
Molecule Ac-[αAllylPro]D[tBuAla][B5(3)]D[TfeGA]AAFL[PyrS2″][3Thi][Bta][Me2Gln]A-NH2 (staple 1-4, 4-11) [Ac-PL3-Asp-Npg-B5-Asp-TfeGA-Ala-Ala-Phe-Leu-PyrS2-3Thi-BztA-Me2Gln-Ala-NH2] yielded an IC50 of 0.01 µM.
In turn, Ac-[αAllylPro]D[tBuAla][B5(3)]NT[Aib]AFN[PyrS2″][3Thi][Bta]Y-NH2 (staple 1-4, 4-11) [Ac-PL3-Asp-Npg-B5-Asn-Thr-Aib-Ala-Phe-Asn-PyrS2-3Thi-BztA-Tyr-NH2] registered a half-inhibitory concentration (IC50) of 0.31 µM.
Ac-[αAllylPro]D[tBuAla][B5(5)]NT[Aib]AFN[PyrS2″][3Thi][Bta]W-NH2 (staple 1-4, 4-11) [Ac-PL3-Asp-Npg-B5-Asn-Thr-Aib-Ala-Phe-Asn-PyrS2-3Thi-BztA-Trp-NH2] displayed an IC50 of 0.754 µM.
With Ac-[αAllylPro]D[tBuAla][B5(3)]D[Phe(3-COOH)]QAFL[PyrS2″][Phe(2-CF3)][2F3MeW]A-NH2 (staple 1-4, 4-11) [Ac-PL3-Asp-Npg-B5-Asp-3COOHF-Gln-Ala-Phe-Leu-PyrS2-2F3MeF-2F3MeW-Ala-NH2], the half-inhibitory concentration (IC50) was determined as 4.75 µM.
Molecule Ac-[αAllylPro]D[tBuAla][B5(5)]D[Phe(3-COOH)][Aib]AF[Abu][PyrS2″][3Thi][Bta][(Pip)GlnR]A-NH2 (staple 1-4, 4-11) [Ac-PL3-Asp-Npg-B5-Asp-3COOHF-Aib-Ala-Phe-Abu-PyrS2-3Thi-BztA-[Pip]GlnR-Ala-NH2] came in with a half-inhibitory concentration (IC50) of 0.007 µM.
On the same count and under the same terms, next, Ac-[αAllylPro]D[tBuAla][B5(5)]D[Phe(3-COOH)]AAFL[PyrS2″][Phe(2-CF3)][Bta][Me2Gln]A-NH2 (staple 1-4, 4-11) [Ac-PL3-Asp-Npg-B5-Asp-3COOHF-Ala-Ala-Phe-Leu-PyrS2-2F3MeF-BztA-Me2Gln-Ala-NH2]: 0.015 µM; Ac-[αAllylPro]D[tBuAla][B5(3)]NT[Aib]AFN[PyrS2″][3Thi][Bta]K-NH2 (staple 1-4, 4-11) [Ac-PL3-Asp-Npg-B5-Asn-Thr-Aib-Ala-Phe-Asn-PyrS2-3Thi-BztA-Lys-NH2]: 0.165 µM.
Ac-[αAllylPro]D[tBuAla][B5(5)]D[Phe(3-COOH)][Aib]AF[Abu][PyrS2″][3Thi][Bta][(NHEt)GlnR]A-NH2 (staple 1-4, 4-11) [Ac-PL3-Asp-Npg-B5-Asp-3COOHF-Aib-Ala-Phe-Abu-PyrS2-3Thi-BztA-[NHEt]GlnR-Ala-NH2] had an IC50 of 0.007 µM.
Regarding Ac-[αAllylPro]D[tBuAla][B5(3)]D[Phe(3-COOH)][Aib]AF[Abu][PyrS2″][Phe(2-CF3)][Bta][Me2Gln]A-NH2 (staple 1-4, 4-11) [Ac-PL3-Asp-Npg-B5-Asp-3COOHF-Aib-Ala-Phe-Abu-PyrS2-2F3MeF-BztA-Me2Gln-Ala-NH2], the half-maximal inhibitory concentration (IC50) turned out to be 0.038 µM.
Ac-[αAllylPro]D[tBuAla][B5(5)]NT[Aib]AFN[PyrS2″][3Thi][Bta]V-NH2 (staple 1-4, 4-11) [Ac-PL3-Asp-Npg-B5-Asn-Thr-Aib-Ala-Phe-Asn-PyrS2-3Thi-BztA-Val-NH2] had an IC50 of 0.475 µM.
Ac-[αAllylPro]D[tBuAla][B5(3)]D[Phe(3-COOH)][Aib]AF[Abu][PyrS2″][3Thi][Bta][Me2Gln]A-NH2 (staple 1-4, 4-11) [Ac-PL3-Asp-Npg-B5-Asp-3COOHF-Aib-Ala-Phe-Abu-PyrS2-3Thi-BztA-Me2Gln-Ala-NH2] registered an IC50 of 0.007 µM.
With Ac-[αAllylPro]D[tBuAla][B5(3)]D[TfeGA]AAFL[PyrS2″][3Thi][Bta][(NHEt)GlnR]A-NH2 (staple 1-4, 4-11) [Ac-PL3-Asp-Npg-B5-Asp-TfeGA-Ala-Ala-Phe-Leu-PyrS2-3Thi-BztA-[NHEt]GlnR-Ala-NH2], the IC50 amounted to 0.014 µM.
Molecule Ac-[αAllylPro]D[tBuAla][B5(3)]D[Phe(3-COOH)]QAFL[PyrS2″][2F3MeF(3)][SbMe2NapA]A-NH2 (staple 1-4, 4-11) [Ac-PL3-Asp-Npg-B5-Asp-3COOHF-Gln-Ala-Phe-Leu-PyrS2-2F3MeF-SbMe2NapA-Ala-NH2] registered a concentration for half-maximal inhibition (IC50) of 0.164 µM.
Molecule Ac-[αAllylPro]D[tBuAla][B5(5)]NT[Aib]AFN[PyrS2″][3Thi][Bta]L-NH2 (staple 1-4, 4-11) [Ac-PL3-Asp-Npg-B5-Asn-Thr-Aib-Ala-Phe-Asn-PyrS2-3Thi-BztA-Leu-NH2] had an IC50 of 0.627 µM.
The molecule Ac-[αAllylPro]D[tBuAla][B5(5)]D[TfeGA]AAFL[PyrS2″][3Thi][Bta][(Pip)GlnR]A-NH2 (staple 1-4, 4-11) [Ac-PL3-Asp-Npg-B5-Asp-TfeGA-Ala-Ala-Phe-Leu-PyrS2-3Thi-BztA-[Pip]GlnR-Ala-NH2] registered a concentration for half-maximal inhibition (IC50) of 0.019 µM.
